Laboratory results as given in the supplement of paper PMC11316812.
± gives the standard deviation of the averaged measurements.

Experiments:
MCF7 = assay: percentage of EdU-negative (G0-arrested) nuclei per well, 72 h; higher = more G0 arrest; settings: reference: sequence is the full UniProt precursor, the tested protein was the secreted form or ectodomain
hTERT-HMEC = assay: as above; settings: reference: sequence is the full UniProt precursor, the tested protein was the secreted form or ectodomain
[1] = protein concentration 0.0257143 µM
[2] = protein concentration 0.257143 µM
[3] = protein concentration 0.0225 µM
[4] = protein concentration 0.03125 µM
[5] = protein concentration 0.3125 µM
[6] = protein concentration 0.0183225 µM
[7] = protein concentration 0.183225 µM
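Further: secreted proteins added to cultured cells, EdU pulse at the end, nuclei found by Hoechst imaging, EdU status from nuclear versus surrounding ring intensity ratio, PBS as neutral control.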

Sequence	percentage of EdU-negative (MCF7; [3])	percentage of EdU-negative (MCF7; protein concentration 0.225 µM)	percentage of EdU-negative (hTERT-HMEC; [3])	percentage of EdU-negative (hTERT-HMEC; protein concentration 0.225 µM)	percentage of EdU-negative (MCF7; [4])	percentage of EdU-negative (MCF7; [5])	percentage of EdU-negative (hTERT-HMEC; [4])	percentage of EdU-negative (hTERT-HMEC; [5])	other results
MKAIIHLTLLALLSVNTATNQGNSADAVTTTETATSGPTVAAADTTETNFPETASTTANTPSFPTATSPAPPIISTHSSSTIPTPAPPIISTHSSSTIPIPTAADSESTTNVNSLATSDIITASSPNDGLITMVPSETQSNNEMSPTTEDNQSSGPPTGTALLETSTLNSTGPSNPCQDDPCADNSLCVKLHNTSFCLCLEGYYYNSSTCKKGKVFPGKISVTVSETFDPEEKHSMAYQDLHSEITSLFKDVFGTSVYGQTVILTVSTSLSPRSEMRADDKFVNVTIVTILAETTSDNEKTVTEKINKAIRSSSSNFLNYDLTLRCDYYGCNQTADDCLNGLACDCKSDLQRPNPQSPFCVASSLKCPDACNAQHKQCLIKKSGGAPECACVPGYQEDANGNCQKCAFGYSGLDCKDKFQLILTIVGTIAGIVILSMIIALIVTARSNNKTKHIEEENLIDEDFQNLKLRSTGFTNLGAEGSVFPKVRITASRDSQMQNPYSRHSSMPRPDY [Q9H3R2]	–	–	–	–	–	–	–	–	percentage of EdU-negative (MCF7; [1]): 22.5 ± 1.3%; percentage of EdU-negative (MCF7; [2]): 26.7 ± 0.67%; percentage of EdU-negative (hTERT-HMEC; [1]): 5.64 ± 0.33%; percentage of EdU-negative (hTERT-HMEC; [2]): 5.31 ± 0.37%
MKALGAVLLALLLFGRPGRGQTQQEEEEEDEDHGPDDYDEEDEDEVEEEETNRLPGGRSRVLLRCYTCKSLPRDERCNLTQNCSHGQTCTTLIAHGNTESGLLTTHSTWCTDSCQPITKTVEGTQVTMTCCQSSLCNVPPWQSSRVQDPTGKGAGGPRGSSETVGAALLLNLLAGLGAMGARRP [Q8IV16]	28.3 ± 1.3%	24.9 ± 0.96%	4.99 ± 0.54%	4.82 ± 0.83%	–	–	–	–	–
MKALIAALLLITLQYSCAVSPTDCSAVEPEAEKALDLINKRRRDGYLFQLLRIADAHLDRVENTTVYYLVLDVQESDCSVLSRKYWNDCEPPDSRRPSEIVIGQCKVIATRHSHESQDLRVIDFNCTTSSVSSALANTKDSPVLIDFFEDTERYRKQANKALEKYKEENDDFASFRVDRIERVARVRGGEGTGYFVDFSVRNCPRHHFPRHPNVFGFCRADLFYDVEALDLESPKNLVINCEVFDPQEHENINGVPPHLGHPFHWGGHERSSTTKPPFKPHGSRDHHHPHKPHEHGPPPPPDERDHSHGPPLPQGPPPLLPMSCSSCQHATFGTNGAQRHSHNNNSSDLHPHKHHSHEQHPHGHHPHAHHPHEHDTHRQHPHGHHPHGHHPHGHHPHGHHPHGHHPHCHDFQDYGPCDPPPHNQGHCCHGHGPPPGHLRRRGPGKGPRPFHCRQIGSVYRLPPLRKGEVLPLPEANFPSFPLPHHKHPLKPDNQPFPQSVSESCPGKFKSGFPQVSMFFTHTFPK	–	–	–	–	26 ± 1.3%	25.5 ± 0.58%	4.57 ± 0.34%	4.52 ± 0.3%	–
MKALIVLGLVLLSVTVQGKVFERCELARTLKRLGMDGYRGISLANWMCLAKWESGYNTRATNYNAGDRSTDYGIFQINSRYWCNDGKTPGAVNACHLSCSALLQDNIADAVACAKRVVRDPQGIRAWVAWRNRCQNRDVRQYVQGCGV	–	–	–	–	–	–	–	–	percentage of EdU-negative (MCF7; [6]): 25.9 ± 0.84%; percentage of EdU-negative (MCF7; [7]): 24.489 ± 0.011%; percentage of EdU-negative (hTERT-HMEC; [6]): 5.192 ± 0.011%; percentage of EdU-negative (hTERT-HMEC; [7]): 4.83 ± 0.071%
MKALLALPLLLLLSTPPCAPQVSGIRGDALERFCLQQPLDCDDIYAQGYQSDGVYLIYPSGPSVPVPVFCDMTTEGGKWTVFQKRFNGSVSFFRGWNDYKLGFGRADGEYWLGLQNMHLLTLKQKYELRVDLEDFENNTAYAKYADFSISPNAVSAEEDGYTLFVAGFEDGGAGDSLSYHSGQKFSTFDRDQDLFVQNCAALSSGAFWFRSCHFANLNGFYLGGSHLSYANGINWAQWKGFYYSLKRTEMKIRRA	–	–	–	–	22.9 ± 0.61%	26.2 ± 3.4%	4.11 ± 0.33%	4.91 ± 0.91%	–
MKASSLAFSLLSAAFYLLWTPSTGLKTLNLGSCVIATNLQEIRNGFSEIRGSVQAKDGNIDIRILRRTESLQDTKPANRCCLLRHLLRLYLDRVFKNYQTPDHYTLRKISSLANSFLTIKKDLRLCHAHMTCHCGEEAMKKYSQILSHFEKLEPQAAVVKALGELDILLQWMEETE [Q9NYY1]	25.2 ± 0.85%	27.2 ± 2.3%	4.59 ± 0.14%	8.36 ± 0.57%	–	–	–	–	–
